Experimental data reported in paper doi:10.1101/2022.02.28.481274 (bioRxiv, 2022).

T1: NocΔCTD-His6 (Bacillus subtilis, UniProt P37524 1-242)
T1 sequence: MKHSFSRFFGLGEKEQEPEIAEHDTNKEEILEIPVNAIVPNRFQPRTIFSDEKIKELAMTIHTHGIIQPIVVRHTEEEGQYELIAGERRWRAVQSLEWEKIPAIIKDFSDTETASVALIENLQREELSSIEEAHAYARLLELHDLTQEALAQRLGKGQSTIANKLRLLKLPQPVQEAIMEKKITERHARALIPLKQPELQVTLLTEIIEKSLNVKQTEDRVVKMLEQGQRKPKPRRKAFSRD

B1: 16-bp NBS (dsDNA)
DNA 1: TATTTCCCGGGAAATA
DNA 2: TATTTCCCGGGAAATA
B2: Bacillus subtilis NocΔCTD-His6 (domain or fragment, UniProt P37524 1-242, looked up)
chain: T1 sequence

Assays:
NocΔCTD-His6 = target: T1, NocΔCTD-His6; assay: X-ray crystallography
crystal structure = target: the molecule itself; assay: crystal structure

Binder | binding result (NocΔCTD-His6) | stoichiometry N (crystal structure)
B1 | binds | 
B2 |  | 2
